Source: patent US20180044422A1, “TREATING SOLID TUMOR BY TARGETING DECTIN-1 SIGNALING” (New York University, priority 2016, published 2018)

Assays:
[1] = target: recombinant mouse Galectin-9 (R&D Systems) (mouse) (UniProt O08573); assay: Control in the bead flow cytometry assay: Dectin-1 IgG Fc beads + rGal-9, stained with the fluorescent isotype antibody instead of αGal-9 (row + + - + -) [cont.) F]
Endoplasmin (mouse) = Endoplasmin (mouse) (UniProt P08113); assay: Dectin-1 Fc affinity purification from KPC cell lysate, mass spectrometry
[2] = target: Probable ATP-dependent RNA helicase DDX17 (mouse) (UniProt Q501J6); assay: as above
[3] = target: Polyadenylate-binding protein 1 (mouse) (UniProt P29341); assay: as above
[4] = target: Putative uncharacterized protein (Sqrdl) (mouse) (UniProt Q9R112); assay: as above
[5] = target: Elongation factor 1-gamma (mouse) (UniProt Q9D8N0); assay: as above
[6] = target: Isoform 2 of Microtubule-associated protein 4 (mouse) (UniProt P27546); assay: as above
[7] = target: Elongation factor 1-alpha 1 (mouse) (UniProt P10126); assay: as above
Eef2 protein (mouse) = Eef2 protein (mouse) (UniProt P58252); assay: as above
Prohibitin (mouse) = Prohibitin (mouse) (UniProt P67778); assay: as above
[8] = target: Cytochrome b-c1 complex subunit 2, mitochondrial (mouse) (UniProt Q9DB77); assay: as above
Clusterin (mouse) = Clusterin (mouse) (UniProt Q06890); assay: as above
Peroxiredoxin-1 (mouse) = Peroxiredoxin-1 (mouse) (UniProt P35700); assay: as above
[9] = target: Dolichyl-diphosphooligosaccharide-protein glycosyltransferase subunit 1 (mouse) (UniProt Q91YQ5); assay: as above
[10] = target: 60S ribosomal protein L18 (mouse) (UniProt P35980); assay: as above
[11] = target: Sodium/potassium-transporting ATPase subunit alpha-1 (mouse) (UniProt Q8VDN2); assay: as above

human IgG Fc-conjugated Dectin-1 fusion protein (murine Dectin-1 IgG Fc; fc-mdec1a, InvivoGen), sequence (Q6QLQ4 69-244 limits assumed): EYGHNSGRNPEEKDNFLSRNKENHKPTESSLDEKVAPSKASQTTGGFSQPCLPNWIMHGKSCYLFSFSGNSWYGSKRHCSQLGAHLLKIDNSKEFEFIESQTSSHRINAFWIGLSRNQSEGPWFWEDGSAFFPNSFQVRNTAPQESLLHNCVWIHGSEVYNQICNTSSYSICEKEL
Clusterin (mouse), sequence (Q06890 22-448 limits assumed): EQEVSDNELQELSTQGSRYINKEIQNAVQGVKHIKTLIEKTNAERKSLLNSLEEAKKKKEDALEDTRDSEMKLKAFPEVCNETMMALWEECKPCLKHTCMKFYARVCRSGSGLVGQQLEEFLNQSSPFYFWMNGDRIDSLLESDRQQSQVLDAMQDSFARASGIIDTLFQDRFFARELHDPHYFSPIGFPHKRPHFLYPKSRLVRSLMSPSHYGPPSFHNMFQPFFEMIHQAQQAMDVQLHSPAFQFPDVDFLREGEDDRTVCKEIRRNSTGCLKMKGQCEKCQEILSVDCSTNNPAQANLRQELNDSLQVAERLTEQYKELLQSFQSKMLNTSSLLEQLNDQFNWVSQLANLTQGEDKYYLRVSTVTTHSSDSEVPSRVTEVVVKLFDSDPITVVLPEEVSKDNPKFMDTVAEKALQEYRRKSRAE
Putative uncharacterized protein (Sqrdl) (mouse), sequence (Q9R112 whole entry): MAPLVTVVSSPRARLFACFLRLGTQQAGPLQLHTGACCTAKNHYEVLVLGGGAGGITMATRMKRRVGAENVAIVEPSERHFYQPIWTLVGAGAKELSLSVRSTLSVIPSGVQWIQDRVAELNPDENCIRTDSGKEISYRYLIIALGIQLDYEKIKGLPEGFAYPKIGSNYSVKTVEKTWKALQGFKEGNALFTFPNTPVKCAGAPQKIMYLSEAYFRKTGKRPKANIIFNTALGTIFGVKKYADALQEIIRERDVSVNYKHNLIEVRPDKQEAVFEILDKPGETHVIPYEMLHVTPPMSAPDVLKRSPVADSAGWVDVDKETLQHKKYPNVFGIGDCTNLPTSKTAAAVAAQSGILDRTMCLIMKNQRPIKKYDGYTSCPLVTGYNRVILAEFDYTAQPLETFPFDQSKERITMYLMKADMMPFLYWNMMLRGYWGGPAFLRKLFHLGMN
Elongation factor 1-alpha 1 (mouse), sequence (P10126 2-462 limits assumed): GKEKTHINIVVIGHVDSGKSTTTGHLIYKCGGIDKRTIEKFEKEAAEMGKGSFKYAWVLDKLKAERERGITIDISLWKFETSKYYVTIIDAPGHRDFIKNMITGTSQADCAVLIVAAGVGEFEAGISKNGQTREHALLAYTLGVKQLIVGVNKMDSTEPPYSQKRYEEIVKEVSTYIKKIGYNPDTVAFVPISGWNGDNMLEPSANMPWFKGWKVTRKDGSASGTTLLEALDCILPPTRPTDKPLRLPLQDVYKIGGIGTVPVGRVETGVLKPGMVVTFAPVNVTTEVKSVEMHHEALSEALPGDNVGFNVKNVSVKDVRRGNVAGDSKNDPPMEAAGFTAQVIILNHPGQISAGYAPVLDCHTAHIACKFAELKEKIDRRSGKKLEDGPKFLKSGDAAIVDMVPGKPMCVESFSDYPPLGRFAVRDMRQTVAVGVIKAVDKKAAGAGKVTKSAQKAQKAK
Endoplasmin (mouse), sequence (P08113 22-802 limits assumed): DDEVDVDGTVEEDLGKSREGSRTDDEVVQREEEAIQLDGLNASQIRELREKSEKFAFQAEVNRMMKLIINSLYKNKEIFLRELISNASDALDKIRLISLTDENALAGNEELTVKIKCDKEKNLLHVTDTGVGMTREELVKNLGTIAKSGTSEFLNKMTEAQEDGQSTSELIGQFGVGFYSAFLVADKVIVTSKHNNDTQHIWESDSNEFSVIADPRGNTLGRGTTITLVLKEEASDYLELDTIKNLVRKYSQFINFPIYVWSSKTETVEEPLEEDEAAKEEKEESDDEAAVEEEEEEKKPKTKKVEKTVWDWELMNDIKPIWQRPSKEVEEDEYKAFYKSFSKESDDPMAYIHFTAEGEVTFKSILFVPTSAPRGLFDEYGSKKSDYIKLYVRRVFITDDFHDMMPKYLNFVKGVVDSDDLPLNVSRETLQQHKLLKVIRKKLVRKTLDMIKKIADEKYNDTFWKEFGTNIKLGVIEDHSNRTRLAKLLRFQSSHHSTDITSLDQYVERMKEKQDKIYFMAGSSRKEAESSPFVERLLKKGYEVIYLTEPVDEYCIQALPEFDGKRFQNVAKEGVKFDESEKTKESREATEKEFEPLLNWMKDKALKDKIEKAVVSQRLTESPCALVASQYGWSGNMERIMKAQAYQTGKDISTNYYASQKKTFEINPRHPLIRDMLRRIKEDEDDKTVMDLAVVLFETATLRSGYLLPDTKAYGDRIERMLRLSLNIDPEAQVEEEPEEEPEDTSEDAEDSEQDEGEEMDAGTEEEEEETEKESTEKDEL
Dolichyl-diphosphooligosaccharide-protein glycosyltransferase subunit 1 (mouse), sequence (Q91YQ5 26-608 limits assumed): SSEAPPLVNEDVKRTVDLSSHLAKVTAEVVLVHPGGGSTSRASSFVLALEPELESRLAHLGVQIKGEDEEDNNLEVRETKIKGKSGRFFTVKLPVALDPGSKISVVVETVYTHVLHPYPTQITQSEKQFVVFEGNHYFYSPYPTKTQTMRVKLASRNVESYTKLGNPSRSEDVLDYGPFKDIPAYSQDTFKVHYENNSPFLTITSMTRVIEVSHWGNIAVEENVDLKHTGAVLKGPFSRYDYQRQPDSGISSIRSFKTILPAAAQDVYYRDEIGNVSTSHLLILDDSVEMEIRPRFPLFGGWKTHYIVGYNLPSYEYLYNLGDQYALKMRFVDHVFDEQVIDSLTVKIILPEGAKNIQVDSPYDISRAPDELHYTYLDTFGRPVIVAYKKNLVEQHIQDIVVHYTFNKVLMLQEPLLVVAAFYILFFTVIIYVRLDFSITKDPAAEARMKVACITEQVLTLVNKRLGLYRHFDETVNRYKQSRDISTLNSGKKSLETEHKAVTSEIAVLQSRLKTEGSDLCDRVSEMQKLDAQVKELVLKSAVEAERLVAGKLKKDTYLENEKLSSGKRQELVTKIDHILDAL
Probable ATP-dependent RNA helicase DDX17 (mouse), sequence (Q501J6 whole entry): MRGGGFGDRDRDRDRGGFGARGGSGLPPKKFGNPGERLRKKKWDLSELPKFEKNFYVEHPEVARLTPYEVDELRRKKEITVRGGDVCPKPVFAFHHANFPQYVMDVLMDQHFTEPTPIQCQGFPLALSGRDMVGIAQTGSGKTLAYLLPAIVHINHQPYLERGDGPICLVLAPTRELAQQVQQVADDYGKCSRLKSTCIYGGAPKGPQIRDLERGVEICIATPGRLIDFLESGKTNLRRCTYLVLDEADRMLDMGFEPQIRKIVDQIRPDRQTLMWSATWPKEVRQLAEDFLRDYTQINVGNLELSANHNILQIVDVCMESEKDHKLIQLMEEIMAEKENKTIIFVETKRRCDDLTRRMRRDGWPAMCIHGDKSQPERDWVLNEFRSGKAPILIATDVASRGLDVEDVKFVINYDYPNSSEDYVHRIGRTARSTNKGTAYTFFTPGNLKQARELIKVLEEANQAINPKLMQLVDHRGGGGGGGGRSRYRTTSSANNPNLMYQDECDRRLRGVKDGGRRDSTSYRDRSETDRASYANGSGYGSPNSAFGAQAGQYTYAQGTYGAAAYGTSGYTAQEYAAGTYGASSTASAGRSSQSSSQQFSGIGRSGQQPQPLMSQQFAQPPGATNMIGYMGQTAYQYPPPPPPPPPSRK
Isoform 2 of Microtubule-associated protein 4 (mouse), sequence (P27546 other isoform, or with tags, fused parts or gaps limits assumed): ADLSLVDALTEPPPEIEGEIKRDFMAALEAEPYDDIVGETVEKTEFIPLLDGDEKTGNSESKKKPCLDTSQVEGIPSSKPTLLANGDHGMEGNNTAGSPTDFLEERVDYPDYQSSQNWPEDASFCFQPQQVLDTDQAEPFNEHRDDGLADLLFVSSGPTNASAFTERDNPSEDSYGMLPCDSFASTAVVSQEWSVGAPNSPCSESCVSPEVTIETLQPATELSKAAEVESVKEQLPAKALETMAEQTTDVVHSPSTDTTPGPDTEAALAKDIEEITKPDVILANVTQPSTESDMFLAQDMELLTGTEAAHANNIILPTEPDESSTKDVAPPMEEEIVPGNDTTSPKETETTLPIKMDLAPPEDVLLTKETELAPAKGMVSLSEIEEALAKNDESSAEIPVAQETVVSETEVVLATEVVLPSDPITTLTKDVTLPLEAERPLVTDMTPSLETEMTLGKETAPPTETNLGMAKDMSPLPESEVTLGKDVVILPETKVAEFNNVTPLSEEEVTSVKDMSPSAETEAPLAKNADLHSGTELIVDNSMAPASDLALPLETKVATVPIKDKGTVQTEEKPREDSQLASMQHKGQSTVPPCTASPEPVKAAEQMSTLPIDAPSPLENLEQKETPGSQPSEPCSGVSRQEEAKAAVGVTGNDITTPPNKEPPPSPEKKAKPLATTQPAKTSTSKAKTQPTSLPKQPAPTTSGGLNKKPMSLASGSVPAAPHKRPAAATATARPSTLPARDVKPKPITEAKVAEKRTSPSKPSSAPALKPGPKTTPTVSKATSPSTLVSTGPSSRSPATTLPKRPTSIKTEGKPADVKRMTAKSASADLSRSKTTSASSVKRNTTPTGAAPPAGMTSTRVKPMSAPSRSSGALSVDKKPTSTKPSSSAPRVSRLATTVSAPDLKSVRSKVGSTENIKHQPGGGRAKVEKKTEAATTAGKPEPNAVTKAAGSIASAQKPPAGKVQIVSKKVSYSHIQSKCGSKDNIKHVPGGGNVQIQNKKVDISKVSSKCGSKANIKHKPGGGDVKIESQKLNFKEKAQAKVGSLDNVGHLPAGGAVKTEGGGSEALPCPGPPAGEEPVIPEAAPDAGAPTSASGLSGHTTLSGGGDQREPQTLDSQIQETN
Peroxiredoxin-1 (mouse), sequence (P35700 2-199 limits assumed): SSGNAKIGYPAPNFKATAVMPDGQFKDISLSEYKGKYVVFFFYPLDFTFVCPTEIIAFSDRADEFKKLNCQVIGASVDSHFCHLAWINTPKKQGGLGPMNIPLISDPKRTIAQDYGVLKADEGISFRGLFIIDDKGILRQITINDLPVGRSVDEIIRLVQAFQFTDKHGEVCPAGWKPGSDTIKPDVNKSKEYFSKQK

Work on “fluorescently-conjugated isotype antibody” yielded an MFI [1] of 669.

Substance “human IgG Fc-conjugated Dectin-1 fusion protein (murine Dectin-1 IgG Fc; fc-mdec1a, InvivoGen) (from UniProt Q6QLQ4 69-244) (Fc fusion)” has a # PSM (IP1) (peptide spectral matches) (Endoplasmin (mouse)) of 30, a # PSM (IP2) (peptide spectral matches) (Endoplasmin (mouse)) of 8 and a # PSM (IP1) (peptide spectral matches) [2] of 7. It also gave a # PSM (IP2) (peptide spectral matches) [2] of 36, a # PSM (IP1) (peptide spectral matches) [3] of 13 and a # PSM (IP2) (peptide spectral matches) [3] of 92. For the same substance, the # PSM (IP1) (peptide spectral matches) [4] was 6, the # PSM (IP2) (peptide spectral matches) [4] was 19 and the # PSM (IP1) (peptide spectral matches) [5] was 11. It also gave a # PSM (IP2) (peptide spectral matches) [5] of 11, a # PSM (IP1) (peptide spectral matches) [6] of 6 and a # PSM (IP2) (peptide spectral matches) [6] of 23. For the same substance, the # PSM (IP1) (peptide spectral matches) [7] was 23, the # PSM (IP2) (peptide spectral matches) [7] was 48 and the # PSM (IP1) (peptide spectral matches) (Eef2 protein (mouse)) was 23. It also gave a # PSM (IP2) (peptide spectral matches) (Eef2 protein (mouse)) of 31, a # PSM (IP1) (peptide spectral matches) (Prohibitin (mouse)) of 5 and a # PSM (IP2) (peptide spectral matches) (Prohibitin (mouse)) of 6. The # PSM (IP1) (peptide spectral matches) [8] was 8, the # PSM (IP2) (peptide spectral matches) [8] was 8 and the # PSM (IP1) (peptide spectral matches) (Clusterin (mouse)) was 8. For the same substance, the # PSM (IP2) (peptide spectral matches) (Clusterin (mouse)) was 9, the # PSM (IP1) (peptide spectral matches) (Peroxiredoxin-1 (mouse)) was 7 and the # PSM (IP2) (peptide spectral matches) (Peroxiredoxin-1 (mouse)) was 16. It also gave a # PSM (IP1) (peptide spectral matches) [9] of 7, a # PSM (IP2) (peptide spectral matches) [9] of 14 and a # PSM (IP1) (peptide spectral matches) [10] of 4. For the same substance, the # PSM (IP2) (peptide spectral matches) [10] was 10, the # PSM (IP1) (peptide spectral matches) [11] was 13 and the # PSM (IP2) (peptide spectral matches) [11] was 14.
